Data set [1] relates to Lewis Lung Cancer tumors. As to the kind of experiment: Sequential in-vivo passaging of LLC tumors under Fc-endostatin. Set-up: species or system C57/B16 mice. As to the method:
Dimerization of the NC-1 endostatin domains were achieved using IgG-Fc. […] Sequential in-vivo tumor passaging was performed to achieve prolonged and continuous exposure to anti-angiogenic therapy to enrich for the resistant tumor cell population.
Murine Lewis Lung Carcinoma (LLC) tumors were implanted s.c. into C57/B16 mice. Tumors were treated with a murine oligomeric-NC1 fragment, mFc-endostatin, at doses indicated. LLC tumors were exposed in-vivo for a prolonged period to mFc-endostatin by sequential transplantation of tumors (up to four passages, p4) once they evade therapy and reach a size of approximately 1000-2000 mm^3. Control tumors were also sequentially transplanted into new mice without mFc-endostatin treatment. Tumor volume was measured by caliper measurement (FIG. 8). After four passages, both mFc-endostatin resistant as well as control tumors were excised, total RNA was isolated and after QC hybridized on genome-wide microarrays for transcriptional analysis. Microarray data were analyzed using SUMO software package. Quantitative real-time RT-PCR was performed using Taqman technology to confirm the expression of candidate genes identified by microarray analysis.

For data set [2] the following is noted: in vivo; cited from earlier work.
For data set [3] the following is noted: in vivo, cited from earlier work.
In data set [4] the test system is ASPC-1 xenograft. As to the kind of experiment: Immunofluorescence distribution in ASPC-1 xenograft mice. The settings on record: mouse, in vivo. The text has this:
Immunohistochemistry was used to verify the distribution of Fc-endostatin in ASPC-1 xenograft mice after treatments. (A) The exogenous endostatin was detected by Alexa 488-labeled antibody (green) and vessel marker, CD31 was used and detected by Alexa 594-labeled antibody (red) in tumor, heart and kidney. (B) α-SMA, pericyte marker (red) was used to confirm the endostatin binding to tumor vessels. (C) Exogenous endostatin (green) distribution is similar to fibronectin (red) in tumor. […] (D) Endogenous collagen 18 (green) and fibronectin (red) were detected by polyclonal antibodies against endostatin and fibronectin in non-treated animal tumor. (E) Staining of Fc-endostatin and integrin α5β1. (F) Staining of vW and integrin α5β1. (G) E14.5 mouse brain embryonic sections were used to verify the distribution of fibronectin, VEGF and Fc-endostatin (Bar, 100 μm).
1.6 Immunohistochemistry. Tumors sections were rinsed by cold PBS and fixed with 4% paraformaldehyde for 10 min with before staining. Human Fc-endostatin was detected by Alexa 488 anti-human IgG. Antibodies to collagen 18 (R&D), fibronectin (R&D), integrin α5 (R&D) CD31 (BD Pharmingen, San Jose, CA) and von Willebrand Factor (Dako, Carpinteria, CA), α-SMA (Dako, Carpinteria, CA) were used for staining. The primary antibodies were detected by Alexa 488 or 594-labeled secondary antibodies (Molecular Probes, Eugene, OR). The sections were imaged by confocal-microscopy (model DM IRE2: Leica).
Immunofluorescence (IF) analysis was used to verify the systemic distribution of hFc-endostatin in an ASPC-1 xenograft animal model. […] In addition to CD31 (endothelial cell) staining, the pericyte marker, α-SMA was used to confirm the interaction of endostatin with blood vessels (FIG. 2B). To examine binding of endostatin to fibronectin, hFc-endostatin treated tumor sections of xenograft models were prepared. […] Co-localization of endogenous collagen 18 and endogenous fibronectin has also been detected (FIG. 2D). […] In addition, ex vivo E14.5 mouse brain embryonic sections were used to confirm this phenomenon. […]

Data set [5] has as its system HUVECs. As to the kind of experiment: Immunofluorescence, endothelial cell surface binding. The format is cell-based, human. As to the method: HUVECs were incubated with Fc-endostatin and detected with Alexa 488 IgG or human NC-1 (hNC-1) trimer and detected by anti-His tag monoclonal antibody.
1.5 Immunocytochemistry. HUVECs were plated and grown on cover slips. […] The slips were incubated in the blocking buffer (2% BSA PBS) for 30 min. For hFc-endostatin or hFc groups, the slides were incubated with Alexa 488 antihuman IgG for imaging. For hNC-1 or IgG groups, the slides were incubated with mouse anti-His-tag monoclonal antibody, then probed by Alexa 488 anti-mouse IgG. Anti-fibronectin antibody (R&D) was used for secondary staining for all slides and probed by Alexa 594 anti-goat IgG and imaged by confocal-microscopy. DAPI counterstaining of nuclei is shown in blue.
2.3 Binding of oligomeric hFc-endostatin and hNC-1 to HUVECs. Immunoflourescence technique was employed to detect endothelial cell surface binding of oligomeric endostatin and NC-1.

Read-outs that look alike come from different tables or passages of the source.

The values below come from US12571800B2, “Means and methods for treating angiogenesis-related diseases” (Heidelberg Biotech GmbH, priority 2011, dated 2026).

B1: Fc-endostatin: human endostatin with the Fc domain at its N-terminus, expressed in NS/0 cells (protein)
chain: HSHRDFQPVLHLVALNSPLSGGMRGIRGADFQCFQQARAVGLAGTFRAFLSSRLQDLYSIVRRADRAAVPIVNLKDELLFPSWEALFSGSEGPLKPGARIFSFDGKDVLRHPTWPQKSVWHGSDPNGRRLTESYCETWRTEAPSATGQASSLLGGRLLGQSAASCHHAYIVLCIENSFMTASK
modifications: left off: a dimerising Fc or GST
notes: human endostatin with the Fc domain at its N-terminus, expressed in NS/0 cells
Regarding B1, the “tumor growth, passage 4 (P4)” value in data set [1] (continuous exposure over four passages) was “growing even faster than non-treated control p4 tumors”. The “tumor growth, first passage (p1)” value in data set [1] (p1) is on record as “strong initial inhibition of tumor growth”. Besides, the “smaller dose required for the same tumor reduction vs endostatin alone” value in data set [2] is 50-100 fold. The half-life in circulation result in data set [3] was “longer half-life than endostatin”; in data set [3] (listed as endostatin fused to the Fc domain of an IgG antibody) it was “longer than a week”. Besides, the “co-localization with fibronectin in tumor sections” value in data set [4] is listed as “co-localization with endogenous fibronection”. Also, in data set [4], the “co-localization with integrin α5β1” value is “co-localized with integrin α5β1”. Also, the “systemic distribution (antibody to Fc)” value in data set [4] was “found not only in tumor but also in heart and kidney endothelial cells”. In addition, the figures for the “binding to HUVECs” value in data set [5] (cells cultured only for 24 hours) and in data set [5] (incubation time prolonged to 72 hours) were “poor binding” and “significant binding”, respectively.
